Results on one molecule are retold here after US12241094B2, “Phenazine degrading agents and related compositions, methods and systems for interfering with viability of bacteria” (priority 2016, dated 2025).

A value given as a limit tells only on which side of the number the result lay.

Data set [1] is described as follows: Storage stability of purified PodA30-162. The class given is physicochemical. The conditions noted are these: 20 mM Tris, pH7.6, 4° C.; as long as tested. On the procedure: Protein extraction and purification. Frozen cell pellets were thawed at room temperature and suspended in 25 mL wash buffer (200 mM KCl, 20 mM imidazole, Tris, pH 7.6). Cell suspensions were homogenized in an Emulsiflex device (Avestin). Cell debris was removed by centrifugation (Avanti J-25 centrifuge, J-series JA-25.50 rotor, Beckman-Coulter) at 50,000×g and supernatant was applied to a nickel GE Healthcare HisTrap HP 5 mL nickel column on a GE Healthcare ÄKTAxpress FPLC. All protein purification steps were carried out at room temperature. The column with bound protein was washed with wash buffer until the UV (280 nm) trace stabilized below 20 mAU. Proteins were eluted across a gradient of 20-500 mM imidazole applied over 10 column volumes. PYO demethylase activity generally eluted around 300 mM imidazole. Eluted protein was concentrated to ˜3 mL (Amicon Ultra-15 centrifugal filters, Ultracel 3K MWCO) and treated overnight with 1% wt/wt TEV protease (35) while dialyzing (Spectra/Por Biotech Dialysis membrane, MWCO: 3.5-5 kD) into buffer containing 200 mM KCl and 20 mM Tris, pH7.6 at 4 C. […] Protein quantification was carried out by Bradford assay (36) (Quick Start 1× Bradford Dye Reagent, Bio-Rad) using pre-diluted Bovine Serum Albumin standards (Thermo Scientific) to establish a standard curve. […]

A further data set concerns P. aeruginosa biofilm. Nature of the data set: Optical density of P. aeruginosa biofilm. The class given is cell-based. The conditions noted are these: PodA vs inactive E154A; 1-OH-PHZ vs 1% DMSO.
Data set [2] has as its system P. aeruginosa planktonic culture. Nature of the data set: Phenazines in planktonic P. aeruginosa cultures (HPLC). In kind it is cell-based. The source says: Product was cut with DpnI to remove WT vector, phosphorylated with T4 polynucleotide kinase, and ligated to generate a circular mutant protein expression construct. For D72N and Y156F mutants, DNA fragments encoding the mutation were synthesized (Integrated DNA Technologies) and cloned into pET-20b(+) as for the wild type sequence. Enzymes for cloning were purchased from New England Biolabs. Constructs were transferred to E. coli BL21(DE3) for expression. All mutations were confirmed by Sanger sequencing (Laragen and Retrogen). When necessary, 100 μg mL^−1 carbenicillin was included in all growth media to maintain selection for the plasmid. To measure the effect of PodA30-162 on phenazine production in planktonically grown P. aeruginosa, cultures were grown overnight in 5 mL volumes of tryptic soy broth (TSB) or succinate minimal medium (arginine medium recipe from Glasser et al., 2014 with 40 mM sodium succinate in place of arginine) (3) in the presence 1 μg mL^−1 PodA30-162. Cells were removed by centrifugation and supernatants were analyzed by HPLC as previously described (9). See below for a description of biofilm growth of P. aeruginosa PA14. To induce protein expression, an overnight culture was inoculated 1/1000 in Terrific Broth (BD Difco). Cultures were grown in baffled Erlenmeyer flasks (1 L culture per 3 L flask) at 37° C. with 150 rpm agitation in a shaking incubator (Innova 44 shaking incubator, New Brunswick). After 3-4 hours, the temperature was changed to 16° C. and cultures were induced with 50 μM (final concentration) IPTG and left to incubate overnight. Cells were then pelleted by centrifugation, flash frozen in liquid N2, and stored at −80° C. for up to 1 month before protein purification.

B1: PodA30-162: truncated pyocyanin demethylase encoded by MFORT_14352 of Mycobacterium fortuitum lacking N-terminal helix, SEQ ID NO: 2 (protein, listed as Mycobacterium fortuitum)
chain: MDGRGGRSTTEPVTMTLDVKNDQVAKHDFGKPGMDVGDMDIFSDILSVDGKQVGYDGGACFFTNVTPDNPMTYCELTIHLDAGEIFARSLTPHTLAPFTMAITGGTGEYANSKGELTVSGVATPDEKYELKLTKAENLYFQ
For the molecule B1, the “time stable with no apparent loss of activity” value in data set [1] was at least 4 months. Further, the “optical density of biofilm” value with P. aeruginosa biofilm is reported as “significantly decreased”. Besides, in data set [2] (TSB), the total phenazine concentrations result was “remain constant”. Besides, the “enzyme stability in P. aeruginosa overnight culture” value in data set [2] (TSB, enzyme added at start of culture) is reported as “remained stable throughout the incubation period”. In addition, the “effect on PYO in planktonic culture” value in data set [2] (rich and minimal medium, 1 μg mL^−1 PodA30-162) is on record as “conversion of PYO to 1-OH-PHZ”. The phenazine production entry in data set [2] (tryptic soy broth, 24 hours) is “changes to the concentrations of all four phenazines”.
